The target of the test is T1, ILEU (Leukocyte elastase inhibitor) (human, UniProt P30740 1-379).
T1 sequence: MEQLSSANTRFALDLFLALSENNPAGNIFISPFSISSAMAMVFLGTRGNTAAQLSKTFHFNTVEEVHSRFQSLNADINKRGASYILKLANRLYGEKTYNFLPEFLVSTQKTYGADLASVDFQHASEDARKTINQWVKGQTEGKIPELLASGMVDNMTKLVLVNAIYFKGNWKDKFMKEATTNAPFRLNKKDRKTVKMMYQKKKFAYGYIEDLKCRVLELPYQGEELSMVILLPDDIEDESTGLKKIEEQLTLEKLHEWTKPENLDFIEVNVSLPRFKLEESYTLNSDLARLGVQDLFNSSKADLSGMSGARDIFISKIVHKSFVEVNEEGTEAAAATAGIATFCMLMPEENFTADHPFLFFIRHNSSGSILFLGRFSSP
As to the kind of experiment: 2D gel (IEF and SDS-PAGE) of tumor tissue lysate, spot identified by MALDI-TOF mass spectrometry. As to the method:
For IEF, 3 ml of the suspension are mixed with 12 ml sample buffer (7 M urea, 2 M thiourea, 2% CHAPS, 0.4% IPG buffer pH 6-9, 0.5% DTT) and incubated for 1 h. The samples are concentrated in an Amicon® Ultra-15 device (Millipore GmbH, Schwalbach, Germany) and the protein concentration is determined using the Bio-Rad® protein assay (Cat. No. 500-0006; Bio-Rad Laboratories GmbH, Munchen, Germany) following the instructions of the supplier's manual. To a volume corresponding to 1.5 mg of protein sample buffer is added to a final volume of 350 μl. This solution is used to rehydrate IPG strips pH 6-9 (Amersham Biosciences, Freiburg, Germany) overnight. The IEF is performed using the following gradient protocol: 1.) 1 minute to 500 V; 2.) 2 h to 3,500 V; 3.) 22 h at constant 3,500 V giving rise to 82 kVh. After IEF, strips are stored at −80° C. or directly used for SDS-PAGE. […]
Each patient is analyzed separately by image analysis with the ProteomeWeaver® software (Definiens AG, Germany, München). […] For each patient, 4 gels from the tumor sample are compared with 4 gels each from adjacent normal and stripped mucosa tissue and analyzed for distinctive spots corresponding to differentially expressed proteins. […]

B1: PRN3 (proteinase 3) (enzyme)
chain: IVGGHEAQPHSRPYMASLQMRGNPGSHFCGGTLIHPSFVLTAAHCLRDIPQRLVNVVLGAHNVRTQEPTQQHFSVAQVFLNNYDAENKLNDVLLIQLSSPANLSASVATVQLPQQDQPVPHGTQCLAMGWGRVGAHDPPAQVLQELNVTVVTFFCRPHNICTFVPRRKAGICFGDSGGPLICDGIIQGIDSFVIWGCATRLFPDFFTRVALYVDWIRSTLR
notes: Endogenous protein in lysates of human colorectal tumor tissue, with an apparent MW of ~28 kDa on the blot; also called uncomplexed PRN3
As for B1, the binding result is reported as “binds”.

The values are drawn from patent US20060177880A1 (ROCHE DIAGNOSTICS OPERATIONS, published 2006).
